Read-outs that look alike come from different tables or passages of the source.
How the values were obtained:
Experiment in all cases: cell-based or functional assay
[1] = target: T1, mouse high-affinity IL-2 receptor IL-2Rαβγ on cells (mouse, UniProt P01590 22-268; P16297 27-539; P34902 23-369)
T1 sequence (looked up) 1: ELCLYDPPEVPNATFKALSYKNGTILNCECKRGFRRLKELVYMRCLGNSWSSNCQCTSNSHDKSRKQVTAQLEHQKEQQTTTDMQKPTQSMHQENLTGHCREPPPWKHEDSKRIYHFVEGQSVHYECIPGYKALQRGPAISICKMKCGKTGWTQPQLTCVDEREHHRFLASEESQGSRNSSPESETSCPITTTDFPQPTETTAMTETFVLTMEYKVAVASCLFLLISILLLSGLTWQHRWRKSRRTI
T1 sequence (looked up) 2: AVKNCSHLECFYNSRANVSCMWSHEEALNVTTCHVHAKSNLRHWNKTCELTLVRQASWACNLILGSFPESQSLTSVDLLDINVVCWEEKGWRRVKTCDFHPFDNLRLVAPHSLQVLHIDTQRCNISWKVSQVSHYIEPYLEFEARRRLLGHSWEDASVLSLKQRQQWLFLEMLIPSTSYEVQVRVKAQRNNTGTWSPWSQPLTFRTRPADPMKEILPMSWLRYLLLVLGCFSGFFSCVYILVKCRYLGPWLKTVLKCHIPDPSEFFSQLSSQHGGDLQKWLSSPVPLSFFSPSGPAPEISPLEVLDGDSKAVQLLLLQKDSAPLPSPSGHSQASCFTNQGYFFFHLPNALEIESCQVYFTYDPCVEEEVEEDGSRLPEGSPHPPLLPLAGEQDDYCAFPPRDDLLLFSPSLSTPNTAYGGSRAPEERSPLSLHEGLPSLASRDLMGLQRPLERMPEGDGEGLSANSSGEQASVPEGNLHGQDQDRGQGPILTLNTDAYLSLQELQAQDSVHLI
T1 sequence (looked up) 3: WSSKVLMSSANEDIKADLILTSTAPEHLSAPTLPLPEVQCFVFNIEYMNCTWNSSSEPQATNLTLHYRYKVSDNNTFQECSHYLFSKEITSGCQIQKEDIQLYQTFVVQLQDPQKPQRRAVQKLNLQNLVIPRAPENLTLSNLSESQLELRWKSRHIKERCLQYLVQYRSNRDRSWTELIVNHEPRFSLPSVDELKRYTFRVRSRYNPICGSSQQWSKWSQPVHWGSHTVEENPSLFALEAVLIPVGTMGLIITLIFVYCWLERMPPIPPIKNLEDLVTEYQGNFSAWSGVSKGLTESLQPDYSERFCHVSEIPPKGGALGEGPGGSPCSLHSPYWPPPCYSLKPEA

[2] = target: T2, mouse intermediate-affinity IL-2 receptor IL-2Rβγ on cells (mouse, UniProt P16297 27-539; P34902 23-369)
T2 sequence (looked up) 1: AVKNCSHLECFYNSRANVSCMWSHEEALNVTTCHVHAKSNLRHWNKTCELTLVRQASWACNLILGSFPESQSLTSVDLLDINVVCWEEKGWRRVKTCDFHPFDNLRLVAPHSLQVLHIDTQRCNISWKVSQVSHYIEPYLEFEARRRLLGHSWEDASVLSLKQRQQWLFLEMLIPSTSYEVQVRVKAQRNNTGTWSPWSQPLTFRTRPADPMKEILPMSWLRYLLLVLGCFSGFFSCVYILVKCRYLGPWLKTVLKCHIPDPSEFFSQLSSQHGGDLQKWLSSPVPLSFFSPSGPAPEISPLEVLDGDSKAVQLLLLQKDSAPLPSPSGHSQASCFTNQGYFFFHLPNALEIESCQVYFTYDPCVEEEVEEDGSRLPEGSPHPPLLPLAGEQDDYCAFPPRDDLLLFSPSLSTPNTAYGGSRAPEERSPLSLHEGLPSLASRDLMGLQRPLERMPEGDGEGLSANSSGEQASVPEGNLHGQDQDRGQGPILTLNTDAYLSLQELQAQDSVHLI
T2 sequence (looked up) 2: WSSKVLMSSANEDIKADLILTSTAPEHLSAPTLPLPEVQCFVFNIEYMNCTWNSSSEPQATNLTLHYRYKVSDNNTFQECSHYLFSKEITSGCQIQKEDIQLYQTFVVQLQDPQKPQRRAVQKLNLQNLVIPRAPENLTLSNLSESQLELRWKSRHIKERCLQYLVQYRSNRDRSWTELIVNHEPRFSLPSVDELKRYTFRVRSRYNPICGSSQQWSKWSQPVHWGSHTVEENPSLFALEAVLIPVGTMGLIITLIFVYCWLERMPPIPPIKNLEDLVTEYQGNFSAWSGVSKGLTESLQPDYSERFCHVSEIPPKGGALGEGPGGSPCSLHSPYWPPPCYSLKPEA

[3] = target: T3, human high-affinity IL-2 receptor IL-2Rαβγ on cells (human, UniProt P01589 22-272; P14784 27-551; P31785 23-369)
T3 sequence (looked up) 1: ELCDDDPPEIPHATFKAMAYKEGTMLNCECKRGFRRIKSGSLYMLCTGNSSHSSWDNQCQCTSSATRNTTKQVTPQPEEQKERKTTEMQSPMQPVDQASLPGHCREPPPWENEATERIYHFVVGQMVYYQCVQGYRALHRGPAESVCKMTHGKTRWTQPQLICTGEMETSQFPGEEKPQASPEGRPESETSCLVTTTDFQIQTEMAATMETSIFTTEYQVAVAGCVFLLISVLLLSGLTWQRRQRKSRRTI
T3 sequence (looked up) 2: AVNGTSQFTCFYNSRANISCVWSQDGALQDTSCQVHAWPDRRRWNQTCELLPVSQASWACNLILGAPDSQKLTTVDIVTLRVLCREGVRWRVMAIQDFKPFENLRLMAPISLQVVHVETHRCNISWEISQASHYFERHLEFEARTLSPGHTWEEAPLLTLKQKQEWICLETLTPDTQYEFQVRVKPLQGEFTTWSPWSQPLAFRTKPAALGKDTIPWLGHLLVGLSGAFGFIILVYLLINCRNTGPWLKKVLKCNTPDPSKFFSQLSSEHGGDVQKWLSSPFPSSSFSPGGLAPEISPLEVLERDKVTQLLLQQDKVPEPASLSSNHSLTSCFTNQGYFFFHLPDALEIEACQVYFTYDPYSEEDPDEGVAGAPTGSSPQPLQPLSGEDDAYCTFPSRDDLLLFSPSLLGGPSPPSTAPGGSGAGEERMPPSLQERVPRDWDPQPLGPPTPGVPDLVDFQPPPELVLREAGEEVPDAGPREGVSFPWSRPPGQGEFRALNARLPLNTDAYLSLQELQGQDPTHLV
T3 sequence (looked up) 3: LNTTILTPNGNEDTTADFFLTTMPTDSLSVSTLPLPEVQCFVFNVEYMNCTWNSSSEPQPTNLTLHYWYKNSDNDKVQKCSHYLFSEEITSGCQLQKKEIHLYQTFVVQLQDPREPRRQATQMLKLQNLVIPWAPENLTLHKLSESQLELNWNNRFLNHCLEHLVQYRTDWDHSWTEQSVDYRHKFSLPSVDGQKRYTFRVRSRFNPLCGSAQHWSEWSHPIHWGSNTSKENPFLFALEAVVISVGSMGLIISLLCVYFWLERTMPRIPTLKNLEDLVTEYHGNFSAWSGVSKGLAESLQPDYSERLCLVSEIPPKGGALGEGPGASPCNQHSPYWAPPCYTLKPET

[4] = target: T1, mouse high-affinity IL-2 receptor …; remark: listed apart in the source
[5] = target: T4, human intermediate-affinity IL-2 receptor IL-2Rβγ on cells (human, UniProt P14784 27-551; P31785 23-369)
T4 sequence (looked up) 1: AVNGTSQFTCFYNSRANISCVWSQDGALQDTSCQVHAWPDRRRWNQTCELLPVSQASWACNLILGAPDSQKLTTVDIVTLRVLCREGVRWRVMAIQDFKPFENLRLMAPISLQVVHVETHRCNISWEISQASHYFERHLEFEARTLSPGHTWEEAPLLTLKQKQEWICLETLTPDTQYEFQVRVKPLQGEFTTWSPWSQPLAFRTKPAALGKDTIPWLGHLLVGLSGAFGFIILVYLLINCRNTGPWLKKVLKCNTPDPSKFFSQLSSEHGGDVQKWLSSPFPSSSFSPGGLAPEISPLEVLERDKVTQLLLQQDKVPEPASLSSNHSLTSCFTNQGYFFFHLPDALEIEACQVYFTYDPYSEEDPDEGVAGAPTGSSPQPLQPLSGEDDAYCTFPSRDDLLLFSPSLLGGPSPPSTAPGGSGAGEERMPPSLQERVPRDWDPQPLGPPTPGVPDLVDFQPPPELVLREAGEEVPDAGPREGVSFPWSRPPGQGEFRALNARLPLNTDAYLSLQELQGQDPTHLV
T4 sequence (looked up) 2: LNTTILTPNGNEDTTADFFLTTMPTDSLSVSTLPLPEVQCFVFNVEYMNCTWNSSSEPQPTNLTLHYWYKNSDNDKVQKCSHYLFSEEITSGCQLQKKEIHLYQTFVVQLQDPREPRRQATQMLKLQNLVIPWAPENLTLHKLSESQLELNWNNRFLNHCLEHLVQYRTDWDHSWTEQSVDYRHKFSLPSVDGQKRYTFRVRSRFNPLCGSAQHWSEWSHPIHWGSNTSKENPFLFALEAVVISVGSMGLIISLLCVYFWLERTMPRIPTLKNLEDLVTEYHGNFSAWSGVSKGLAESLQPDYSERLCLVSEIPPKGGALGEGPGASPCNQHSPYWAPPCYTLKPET

[6] = target: T2, mouse intermediate-affinity IL-2 …; remark: listed apart in the source
[7] = target: T4, human intermediate-affinity IL-2 …; remark: listed apart in the source
[8] = target: T3, human high-affinity IL-2 receptor …; remark: listed apart in the source
[9] = target: T4, human intermediate-affinity IL-2 …; remark: listed apart in the source
[10] = target: T4, human intermediate-affinity IL-2 …; remark: listed apart in the source

Row | Binder | % pSTAT5 in mouse splenocytes at Low IL-2v concentration (2.5 nM per paragraph 254); western blot, pSTAT5/STAT5 normalised to 001 High [1] | % pSTAT5 in mouse splenocytes at High IL-2v concentration (25 nM per paragraph 254); western blot, pSTAT5/STAT5 normalised to 001 High [2] | % pSTAT5 in human PBMC at Low IL-2v concentration (2.5 nM per paragraph 254); western blot, pSTAT5/STAT5 normalised to 001 High [8] | % pSTAT5 in human PBMC at High IL-2v concentration (25 nM per paragraph 254); western blot, pSTAT5/STAT5 normalised to 001 High [9] | EC50 (read off the curve): STAT5 phosphorylation in HH cells [10] | other results
1 | CP-trIL-2 072 (ligand) ELKHLQSLEEELKDLEEVLNLAQSKNFHLRPRDLISNINVIVLELKGSETTPTSSSTKKTQLQLEHLLLDLQMILNGINNYKNPTIVEFLNRWITFSQSIISTLT | 30.7% | 91.3% | 6.5% | 41.4% | – | EC50 of STAT5 activation, human Tregs (flow cytometry) [3]: 22 nM; EC50 of STAT5 activation, mouse Tregs (flow cytometry) [4]: 129 nM; EC50 of STAT5 activation, human CD8 T cells (flow cytometry) [5]: 45.7 nM; EC50 of STAT5 activation, human NK cells (flow cytometry) [5]: 15.6 nM; EC50 of STAT5 activation, mouse CD8 T cells (flow cytometry) [6]: 110 nM; EC50 of STAT5 activation, mouse NK cells (flow cytometry) [6]: 113 nM; EC50 (read off the curve): STAT5 phosphorylation in HH cells [7]: ~20 nM
2 | CP-trIL-2 073 (ligand) ELKHLQSLEEELKDLEEVLNLAQSKNFHLRPRDLISNINVIVLELKGSETTPTSSSTKKTQLQLEHLLLDLQMILNGINNYKNPTIVEKLNRWITKSQSIISTLT | – | – | – | – | – | EC50 (read off the curve): STAT5 phosphorylation in HH cells [7]: ~10 nM
3 | CP-trIL-2 032 (ligand) ELKHLQSLEEELKDLEEVLNLAQSKNFHTIVEFLNRWITFSQSIISTLTGGGGSGGGGSPTSSSTKKTQLQLEHLLLDLQMILNGINNYKNPLRPRDLISNINVIVLELKG | 11.5% | 18.9% | 10.4% | 7.6% | – | –
4 | CP-trIL-2 042 (ligand) TIVEFLNRWITFSQSIISTLTGGGGSGGGGSPTSSSTKKTQLQLEHLLLDLQMILNGINNYKNPLRPRDLISNINVIVLELKGSETTELKHLQSLEEELKDLEEVLN | 13.9% | 16.1% | 6.2% | 9.3% | – | –
5 | CP-trIL-2 082 (ligand) LRPRDLISNINVIVLELKGSETTPTSSSTKKTQLQLEHLLLDLQMILNGINNYKNPTIVEFLNRWITFSQSIISTLTGGGGSGGGGSELKHLQSLEEELKDLEEVLN | 16.7% | 25.2% | 15.6% | 45.8% | – | –
6 | CP-trIL-2 021 (ligand) LRPRDLISNINVIVLELKGSETTELKHLQSLEEELKPLEEVLNLAQSKNFHTIVEFLNRWITFSQSIISTLTGGGGSGGGGSPTSSSTKKTQLQLEHLLLDLQMILNGIN | – | – | – | – | ~30 nM | –
7 | CP-trIL-2 022 (ligand) LRPRDLISNINVIVLELKGSETTELKHLQSLEEELKDLEEVLNLAQSKNFHTIVEFLNRWITFSQSIISTLTGGGGSGGGGSPTSSSTKKTQLQLEHLLLDLQMILNGIN | 24.8% | 68.5% | 9.1% | 38.1% | ~20 nM | –
8 | CP-trIL-2 011 (ligand) PTSSSTKKTQLQLEHLLLDLQMILNGINNYKNPLRPRDLISNINVIVLELKGSETTELKHLQSLEEELKPLEEVLNLAQSKNFHTIVEFLNRWITFSQSIISTLT | – | – | – | – | ~6 nM | –
9 | CP-trIL-2 051 (ligand) PTSSSTKKTQLQLEHLLLDLQMILNGINNYKNPTIVEFLNRWITFSQSIISTLTGGGGSGGGGSELKHLQSLEEELKPLEEVLNLAQSKNFHLRPRDLISNINVIVLELKG | 14.6% | 21.8% | 9.5% | 18.2% | – | –
10 | CP-trIL-2 062 (ligand) TIVEFLNRWITFSQSIISTLTGGGGSGGGGSELKHLQSLEEELKDLEEVLNLAQSKNFHLRPRDLISNINVIVLELKGSETTPTSSSTKKTQLQLEHLLLDLQMILNGIN | 13.8% | 20.5% | 10.7% | 12.1% | – | –

From US20250163117A1 (CURE GENETICS, published 2025)
